Reference: the DeepSol protein solubility set

assay: soluble on expression in E. coli; label from the status in PepcDB or PDB records

Row | Sequence | soluble on expression in E. coli
1 | MGSDKIHHHHHHMEIKCIITDDEPIARKGLRRHIGKIDFLTIVGECEDAIQLNNMLNSVQADLLFLDIEMPDMSGLDFLESAQNAPKVIITSAYERYALRGYEFDVVDYLLKPISFSRFLKSVNKAHALMESTSKSEEPAYIFVKTEKQLKRLYLKEIQFIEGMENYIVIHTLTSKEIVHLRLKSIQETLPAQIFMQVHRSFIVNLSYVQAIEGNLLIIGEHKIPVSRPLREEVYKSIVNNQLIQR | not soluble
2 | MGSDKIHHHHHHMEIKKGTWIIKKGFAEMFKGGVIMDVTSAEQAKIAEEAGAVAVMALERVPADIRKEGGVARMASIAKIREIMEAVSIPVMAKVRIGHIAEAKILEELGVDFIDESEVLTPADDRFHINKHEFKVPFVCGARDLGEALRRIAEGAAMIRTKGEAGTGNVVEAVKHMRRVMEQIKQVTKMEDEELVAYGKEIGAPVELLREVKRLGRLPVVNFAAGGVATPADAALMMMLGADGVFVGSGIFKSKDPRKMAKAMVLAVTYWDNPRILLKISEDIGEPMRGLDVEELEVRMQERGW | not soluble
3 | MGSDKIHHHHHHMEIPPEILQSLIELGFTKYEVLTYWTLLVYGPSTAKEISIRSGIPYNRVYDTISSLKVRGFVTEIEGNPKVYAAYSPRIAFLRFKKELDEISEKLEKAISEVKREERCRPSIWRSHDFEEAIEMFKETLESSENEVIVVTPSEFFKSIRETLIGILDRGVTLSLYIDKVPDISDFEGRGNFFLRRFTKFNHLIGLADGKVVATIQNVSFMPPSPPSFKSTFKEIIFSQYSLTLEIFKESSLEVEQIMNPQDIRFFAVFHAADFVKRHLPSSTIFSEIVGRNVKTGEVEKLYGKVVGYTLSFREGVNNIQIETEKGIVKVGGMFAVIEDYESTNVRLMLES | not soluble
4 | MGSDKIHHHHHHMEITSKTYLSTILGNDLAAGFYPTPLTEGNHLIQLLQMESERAYACFDPCCGEGTILRSFADAVKQVGIQLDTYGVELDANRYNKAKEQLDVVIRSSFESMMISHDYFPLIFLNPPYNTELRTEKKKSEKMEFNFLKRAHHYLQDGGIMVYVIPYDRFARDEISYFLAKNYEEIGLMRFGDENEEFEQFKQCVFIGRKRAATKNDTYFNDRFANFCENMSELDFVREHVNTLAQMVNRKSWTIPTLRNQNKLIFTSRVDYKDAYEGVGKSEGILTLKKRLNRGNGYSLQAEKTAAERAKMPIASGQLGLLLITGVADGLLGEGDTLHAVRGSENVFFETSFEKLETTTKEVVLQKRRAKFIIATPTGEVKELV | not soluble
5 | MGSDKIHHHHHHMEIVLAKRAGFCFGVKRATQMAFEAAEKEGETFTLGPIIHSPQVVQRLEGMGVKVLSDLEGIGNGTVIIRSHGVTSAELEDAVRRQLEVVDATCPFVKKAQEHVKRLSHDGYTVVVVGDADHPEVQGIVSYAEGPVHVVGSGEEAARLPNMKKVGVVAQTTQSFETLKNVVKECLLKGGEIRVFNTICDATAVRQDEAKALAREVDCMIVIGGFNSANTKRLAEVCSELQPRTYHIETAQELDASWFQGVERVGVTAGASTPKWLIDEVIERIQEFDNKKKG | not soluble
6 | MGSDKIHHHHHHMEKFGLKALVPLLKLEDKELSSTYDHSMTLGADLSSMLYSLGIPRDSQDHRVLDTFQSPWAETSRSEVEPRFFTPESFTNIPGVLQSTVTPPCFNSIQNDQQRVALFQDETLFFLFYKHPGTVIQELTYLELRKRNWRYHKTLKAWLTKDPMMEPIVSADGLSERGSYVFFDPQRWEKCQRDFLLFYNAIM | not soluble
7 | MGSDKIHHHHHHMEKIIVNGRKNGQKIEIACSNLVMGAGDFLRADNMDFAGPVLDQYFEMGGNIFDTARHYRHSEKAIGAWMNMRGNRDSVIIQTKGGHPVREASDVPRVTPEAIHEDISVSLDTLQTDHVELFALHRDNPDVEVGSIMEAMHKEVEAGRVYAIGLSNWELSRIIEANEYAVNHGLTPLSFNSPNFSLAKVNRPRWENCVSANEEMIRWHEATNLPLFSWSSQAGGFFSGRFSEEDTSDTEMVEVYYSEANWERYSRAKQLANQKGCTPIQISLAYVLTQSFPTAAVIGPENTTELQSSVAAAGIKLTASEVDWLDLKA | not soluble
8 | MGSDKIHHHHHHMEKILDLLMSFVKEDEGKLDLASFPLRNTTAGAHLLLKTENVVASGIEVSRMFLEKMGLLSKFNVEDGEYLEGTGVIGEIEGNTYKLLVAERTLLNVLSVMFSVATTTRRFAEKLKHAKIAATRKILPGLGVLQKIAVVHGGGDPHRLDLSGCVMIKDNHLKMYGSAERAVQEVRKIIPFTTKIEVEVENLEDALRAVEAGADIVMLDNLSPEEVKDISRRIKDINPNVIVEVSGGITEENVSLYDFETVDVISSSRLTLQEVFVDLSLEIQR | soluble
9 | MGSDKIHHHHHHMEKQEIIEKLVELKDRLIEDVYQAYSRNTSDYGHERYNAWKKSVTKFLNQYIPNEVQRFNEKANPTYGVFLRRNGMSYHDFFWKTDGSAMNAYLESLILDIQNDDYDFTPINKEVQDVKTIPEAKSKKVLIVHGHDEAAKYRTEAFLRKHGFDPIILHLNASKGDTIIKKLERLAEGVGYGIVLYTPDDMGETKVKAVQHELQPRARQNVVFEHGYLMGLIGRPNVAAIVEGYVEKPSDIDGVVYIPSSNWEIDLLRELHEAGYPINPANL | not soluble
10 | MGSDKIHHHHHHMEKSYWEQAHLQLPLKYTWKISRNASTEKINVIVFLCIDGRTYPGEAAPNVRYGESVELIDLQFKHFQTVWKDSLLQDEHAYNDVLDGLKLCQSLRFALESAYVHARCDKDPAFFERYTGIKMHTSPLATSYTLPIMDPGQIQEFIQTHDLTRFDTLKIKTGKEESKELIKTASRYFDKMIRVDANEAWTDPDLLIKELEELKRIPLEFIEQPFESAQKDAYKYFKKYSKIPVIADESITFAPDLKEIKELFHGVNMKLMKAGGYREGANILLKSKELGLKTMVGCMVETTLGIRSGMWISGHSDYIDLDGSFVIDNEPFKLVSENLGRLVIKQVNFFIEKWQK | not soluble
11 | MGSDKIHHHHHHMEKYSAESIKVLKGLEPVRMRPGMYIGSTGKRGLHHLVYEVVDNSVDEALAGYCDWIRVTLHEDGSVEVEDNGRGIPVDIHPEEGRSALEVVFTVLHAGGKFSKDSYKISGGLHGVGVSVVNALSEWLEVRVHRDGKIYRQRYERGKPVTPVEVIGETDKHGTIVRFKPDPLIFSETEFDPDILEHRLREIAFLVPGLKIEFEDRINGEKKTFKFDGGIVEYVKYLNRGKKALHDVIHIKRTEKVKTKNGEDEVIVEIAFQYTDSYSEDIVSFANTIKTVDGGTHVTAFKSTLTRLMNEYGKKHNFLKKDDSFQGEDVREGLTAVISVYVKNPEFEGQTKSKLGNEEVKEAVTKAMREELKKIFDANPELVKTILSKIMSTKQAREAAKRAREMVRRKNVLQNTTLPGKLADCSSTHREKTELFIVEGDSAGGSAKQARDREFQAVLPIRGKILNVEKSSLDRLLKNEQISDIIVAVGTGIGDDFDESKLRYGRIIIMTDADIDGAHIRTLLLTLFYRYMRPLIEQGRVYIALPPLYRIKAGREEFYVYSDQELAEYKEKLQGKRIEIQRYKGLGEMNPEQLWETTMNPETRKIIRVTIEDAEEADRLFEILMGNDPSSRREFIERHALKVKELDI | not soluble
12 | MGSDKIHHHHHHMELQVFTNEQFGEVRTATINNQIYFNLNDCCQILELSNPRKTIERLNKDGVTTSDIIDSLGRTQQANFINESNFYKLVFQSRKPEAEKFADWVTSEVLPSIRKHGAYMTEQTLEQALTSPDFLIRLANELKEEKERSRQLEAEKSILSVENMVMKPKADYFDDLVDRNLLTSFRETAKQLKVKERRFIQFLLDKKYVYRDKKGKLMPFADKNNGLFEVKESVNEKTNWAGTQTLITPKGRETFRLLFI | not soluble
13 | MGSDKIHHHHHHMELSQNAPNELEYIREFLNTWRIPNDTREAIDLLQTEEDIKLFMKEYFHEEFPFHTIEELKSFREDIRMTIEGEGSLEKWLEKYPFHVYIKEDMKGITYEPIHEETVYTKVLSIVLIAVQENLWGRLKACPDCRWVFYDNSRNGSKRWCGMYAGEEGGRACGTIAKVKNYRAKRKGRSGYNV | not soluble
14 | MGSDKIHHHHHHMELVKFGKLKEQSYTMKESLRALKTNIQFCGDDIRTLLVTSSVPNEGKSTVALDLARSLTESGNRVLFIDTDMRKSVLAGRLRATAASGGEICGLSHYLSGQRRLEEVMYGTEIPGLFMIFAGPSVPNPTEILEKKYFQELLNFGKEHFNYIIIDCAPIGAAIDAAVVAKYCDGAIIVIGQGMASARMIQSVKKQLEASGVRILGAVLNKVNNKKNSHVSGYYGNYYGSYYGRSDKA | not soluble
15 | MGSDKIHHHHHHMENGEMIKVLLANPRGFCAGVDRAIEIVERALSVHGAPIYVRHEVVHNRFVVEDLEKKGAVFVENLDEVPAGSILIFSAHGVSHAVRREAEAGQFKVFDATCPLVTKVHIEVAKMRDQGREIIMIGHAGHPEVEGTMGQAEGDGPSMYLVETEEDVEKLQVQDPAHLAYVTQTTLSVDDANRVIQALKGRFPNILGPKKDDICYATQNRQDAVKTMVKQCDLVIVVGSPNSSNSNRLCEVARNAGVDAYMLDRAEQLQEAWLKGKMRIGITAGASAPEVLVQEVISRLRQIVSEQAEREVVVEELRGVVESVVFPLPRN | not soluble
16 | MGSDKIHHHHHHMENKVKTVAVFSGYYLPFLGGIERYTDKMTADLVKRGYRVVIVTTNHGDLPIIDEDKGRKIYRLPTKNIVKQRYPIINKNREYNTLMKYVSDENIDFVICNTRFQLTTLEGLSFAKNHHLPSIVLDHGSSHFSVNNRFLDFFGAIYEHLLTARVKHYRPDFYAVSKRSVEWLKHFNIEAKGVIYNSVSESLGSDFAGTAYLEKSADDIFITYAGRIIKEKGIELLLEAFSMSQYSENVYLQIAGDGPELAHLKEKYQSKQINFLGKLNFEQTMSLMAQTDIFVYPSMYPEGLPTSILEAGLLSSAIIATDRGGTVEVIDSPELGIIMEENTQSLHESLDLLVKDKALREKLQQNIAKRIKEHFTWEKTVEKLDYIIQKN | not soluble
17 | MGSDKIHHHHHHMENQPNTRSMIFTLYGDYIRHYGNVIWIGSLIRFLQEFGHNEQSVRAAVSRMSKQGWIQSEKKGNKSYYSLTDQGRKRMAEAAQRIYKLEAPSWDEKWRLLIYSIPEEKRSLRDELRKELVWSGFGLLANSCWITPNPLEEQVETLIEKYEISPYVHFFCADYRGMGEPKTLIEKCWDLDEINEKYLAFIQKYSQKYVIDKNKIEKGEMSDGACFVERTLLVHEYRKFLFIDPGLPQELLPEKWLGDSAAHLFADYYRTLAEPARRFFESVFAEGNSLVKKDKEYNFLDHPFMSESQS | not soluble
18 | MGSDKIHHHHHHMEPNDAVVGVDVSKEHLDVYLMPTGDQKRVTNDDAGCAELTTWLITNAPCRIVLEATGGLEMLAVSTLSAAGLPVVVVNPRQVRNFAKACGLLAKTDILDAKIIARFAQAIKPEIRPLKDETSQNLAALLARRRQLVEMLVAEKNRVISAAPTVRKGIMTHIAWLTQQIDDVDKDISTLIQSSESWKAKEEILTSVKGIGPVTAATILAALPELGTISRQQLGALVGVCPYNRDSGKFRGKRAISGGRATVRSVLYMATLCAARFNPVIKAFYQRLTSAGKLHKVAITACMRKLLTILNAMVKNNQKWDHSKFTPLLH | not soluble
19 | MGSDKIHHHHHHMERIVDTADGRFDTRLTGTGNVTFILDHGMMSSHYQWGWLRGELLKQGRVFEYSRLGYGRSTRGKTKRLFTRQADELERVLALLDIKGPFVFIGHSLGAYISLELGRRRPDETAGIVLLDPSHPEVDAELPNWYERTQEEWNRFLYVLSHVRPLAWLIPDDLGARMFTSLPEADRIPMWRNMARKNHWRGTLDEWQAVEANNQHVLEVVEHIVPPVLVLSASDWAGGMPENWLNPELTKRINAAHERFAASLPDAAFHVIPNTNHYTIAGFSEEAATTIVSLIRNAFFK | not soluble
